Experimental findings from patent US20200172904A1 (MIT, published 2020) are described below.

This experiment addresses FMR1 (mouse, UniProt P35922 1-614). In words: co-IP of Mena from E15.5 mouse brain lysates, western blot. Background: In western blotting, separated proteins are transferred to a membrane and probed.

Protocol: Collected lysates were cleared by centrifugation for 20 minutes 14k rpm at 4° C., and incubated overnight at 4° C. with antibodies on magnetic protein G beads (incubated in PBS for 4 hours at 4° C. After IP, beads were washed three times with lysis buffer containing 0.4% NP40, and boiled in 2× sodium dodecyl sulfate (SDS) sample buffer for loading onto an acrylamide gel either for western blotting or for Mass Spectrometry.
Mass spectrometry was performed after immunoprecipitation (IP) of Mena from lysates of E15.5 mouse brains from Mena-wild type and Mena-deficient animals. […] To verify the specificity of these interactions, co-IP experiments from E15.5 mouse brains was performed using Mena-deficient brain lysates or isotype-specific antibodies as negative controls.

B1: Mouse Mena/ENAH (Protein enabled homolog) (other)
chain: MSEQSICQARAAVMVYDDANKKWVPAGGSTGFSRVHIYHHTGNNTFRVVGRKIQDHQVVINCAIPKGLKYNQATQTFHQWRDARQVYGLNFGSKEDANVFASAMMHALEVLNSQEAAQSKVTATQDSTNLRCIFCGPTLPRQNSQLPAQVQNGPSQEELEIQRRQLQEQQRQKELERERMERERLERERLERERLERERLEQEQLERQRQEREHVERLERERLERLERERQERERERLEQLEREQVEWERERRMSNAAPSSDSSLSSAPLPEYSSCQPPSAPPPSYAKVISAPVSDATPDYAVVTALPPTSTPPTPPLRHAATRFATSLGSAFHPVLPHYATVPRPLNKNSRPSSPVNTPSSQPPAAKSCAWPTSNFSPLPPSPPIMISSPPGKATGPRPVLPVCVSSPVPQMPPSPTAPNGSLDSVTYPVSPPPTSGPAAPPPPPPPPPPPPPPPLPPPPLPPLASLSHCGSQASPPPGTPLASTPSSKPSVLPSPSAGAPASAETPLNPELGDSSASEPGLQAASQPAESPTPQGLVLGPPAPPPPPPLPSGPAYASALPPPPGPPPPPPLPSTGPPPPPPPPPPLPNQAPPPPPPPPAPPLPASGIFSGSTSEDNRPLTGLAAAIAGAKLRKVSRVEDGSFPGGGNTGSVSLASSKADAGRGNGPLPLGGSGLMEEMSALLARRRRIAEKGSTIETEQKEDRNEDAEPITAKAPSTSTPEPTRKPWERTNTMNGSKSPVISRPKSTPSSQPSANGVQTEGLDYDRLKQDILDEMRKELAKLKEELIDAIRQELSKSNTA
notes: Endogenous Mena from E15.5 mouse brain lysates, cultured mouse cortical neurons, N2A cells or MEFs
As for B1, the binding result is on record as “no binding”.
